Laboratory results taken from patent US20100087005A1, “AUXILIARY REAGENT FOR GENE TRANSFER” (priority 2006, published 2010).

System: transgenic mice overexpressing full-length Del-1
Assay: In vivo gene transfer of human thermostable alkaline phosphatase gene (TransIT In Vivo Gene Delivery System) in Del-1 transgenic mice, serum AP activity
Set-up: species or system mouse
Conditions: tail vein injection of human thermostable alkaline phosphatase gene, serum 24 hours later, heat treated 65° C. 30 minutes, FIG. 5
Protocol: According to the ordinary method, transgenic mice in which cDNA of full-length Del-1 (i.e., DNA consisting of the nucleotide sequence represented by SEQ ID NO: 9) is overexpressed were prepared (see Hidai et al., Anatomical Record A, vol. 287A, pp. 1165-1175). Del-1 protein produced in cells of the transgenic mice is a protein having the amino acid sequence represented by SEQ ID NO: 10 (including the signal peptide). Del-1 protein secreted from the cells to the outside thereof is a protein having an amino acid sequence consisting of amino acid residues at positions 26 to 480 in the amino acid sequence represented by SEQ ID NO: 10 (excluding the signal peptide). […] Using 20 μl of serum after the heat treatment, the activity of exogenous alkaline phosphatase (human thermostable alkaline phosphatase) was measured. In the measurement of the activity, 20 μl of serum was mixed with 200 μl of 1 mg/ml p-nitrophenyl phosphate, and after causing reaction at room temperature for 30 minutes to 1 hour, the absorbance at 405 nm was measured using a […] (BioRad). […]
Measurement values of the alkaline phosphatase activity are expressed by average value±SEM (standard error of the mean). The measurement values obtained from the control group into which alkaline phosphatase gene was not injected are regarded as 1, and the measurement values of the transgenic mice were calculated based thereon.

B1: full-length Del-1: Del-1 protein, SEQ ID NO: 10, overexpressed in transgenic mice; secreted form residues 26 to 480 (protein, listed as Mus musculus)
chain: MKHLVAAWLLVGLSLGVPQFGKGDICNPNPCENGGICLSGLADDSFSCECPEGFAGPNCSSVVEVASDEEKPTSAGPCIPNPCHNGGTCEISEAYRGDTFIGYVCKCPRGFNGIHCQHNINECEAEPCRNGGICTDLVANYSCECPGEFMGRNCQYKCSGPLGIEGGIISNQQITASSTHRALFGLRKWYPYYARLNKKGLINAWTAAENDRWPWIQINLQRKMRVTGVITQGAKRIGSPEYIKSYKIAYSNDGKTWAMYKVKGTNEEMVFRGNVDNNTPYANSFTPPIKAQYVRLYPQICRRHCTLRMELLGCELSGCSEPLGMKSGHIQDYQITASSVFRTLNMDMFTWEPRKARLDKQGKVNAWTSGHNDQSQWLQVDLLVPTKVTGIITQGAKDFGHVQFVGSYKLAYSNDGEHWMVHQDEKQRKDKVFQGNFDNDTHRKNVIDPPIYARFIRILPWSWYGRITLRSELLGCAEEE
  exogenous alkaline phosphatase activity in serum, transgenic mouse (TG) vs wild-type mouse (WT): about twice as high as that of the wild-type mouse (WT)
